{"source": "patent US20240299449A1", "about": "(University of California, published 2024)", "key": {"[1]": {"biological_target": "T1, recombinant fusion protein comprised of the C-terminal extracellular domain of CD72 (aa 117-359) fused to a … (human, UniProt P21854 117-359, biotinylated (on the Fc domain; site not stated))", "T1 construct": "range 117-359; Expressed in mammalian cells; CD72 is a type II protein, so the Fc may be N-terminal; also called CD72-Fc; CD72-ECD-Fc; not shown: human Fc domain", "T1 sequence (looked up)": "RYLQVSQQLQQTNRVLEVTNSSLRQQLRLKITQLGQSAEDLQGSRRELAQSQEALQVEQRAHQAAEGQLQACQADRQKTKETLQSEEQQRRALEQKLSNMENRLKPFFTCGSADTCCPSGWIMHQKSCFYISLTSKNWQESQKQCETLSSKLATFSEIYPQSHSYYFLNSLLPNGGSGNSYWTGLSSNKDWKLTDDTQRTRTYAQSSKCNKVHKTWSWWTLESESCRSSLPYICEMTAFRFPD", "experiment": "on-yeast affinity measurement, flow cytometry, titration of CD72-Fc", "source_text": "FIG. 4a-e: Isolation of high-affinity CD72 nanobodies with yeast display (a) Schematic of workflow for in vitro anti-CD72 nanobody selection using yeast display. (b) Structure models of the recombinant Fc-fusion proteins used to perform yeast display selections. The Fc protein on the left was used to negatively select potential off-target nanobodies while the CD72-Fc protein (CD72 extracellular domain fused to a human Fc domain) was used to perform positive selection steps to isolate CD72-specific nanobodies (c) Schematic displaying the nanobody yeast display selection strategy for each MACS and FACS selection round to enrich for CD72-specific nanobody binders. Two rounds of MACS followed by four rounds of FACS with decreasing concentration of CD72 antigen produced high affinity anti-CD72 nanobodies. (d) On-yeast binding of recombinant CD72-Fc fusion protein for CD72-selected nanobodies Nb.B5 (nanobody sequence SEQ ID NO:2) and Nb.C2 (nanobody sequence SEQ ID NO:1) expressed on yeast to determine estimated binding affinities. Kd determined by curve fitting using non-linear least squares regression. (e) Flow cytometry plots of yeast clone Nb.C2 binding to 10 nM CD72-ECD-Fc protein (left) or 10 nM Fc protein (right). […]"}, "[2]": {"biological_target": "T2, recombinant fusion protein comprised of the C-terminal extracellular domain of CD72 (aa 117-359) fused to a … (human, UniProt P21854 117-359, biotinylated (on the Fc domain; site not stated))", "T2 chain": "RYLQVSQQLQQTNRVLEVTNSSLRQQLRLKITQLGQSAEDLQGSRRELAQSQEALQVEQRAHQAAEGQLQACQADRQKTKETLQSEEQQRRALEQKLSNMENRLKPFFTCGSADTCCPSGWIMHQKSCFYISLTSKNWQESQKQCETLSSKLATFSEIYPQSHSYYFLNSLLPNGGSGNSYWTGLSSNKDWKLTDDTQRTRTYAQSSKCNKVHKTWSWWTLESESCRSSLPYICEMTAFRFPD", "experiment": "on-yeast binding (yeast display titration)"}}, "data": [{"binder": "Nb.C2 (VHH, display was detected with anti-HA-FITC; also called yeast clone Nb.C2) VHH: QVQLQESGGGLVQAGGSLRLSCAASGTIFDWYSMGWYRQAPGKERELVAGIDTGANTYYADSVKGRFTISRDNAKNTVYLQMNSLKPEDTAVYYCAAHDDGDPWHVYWGQGTQVTVSS", "values": [{"measurement": "binding result", "setting": "[1]", "value": "binds"}, {"measurement": "Kd", "setting": "[2]", "value": 1.5, "unit": "nM"}]}, {"binder": "Nb.B5 (VHH) VHH: QVQLQESGGGLVQAGGSLRLSCAASGTIFPVDYMGWYRQAPGKERELVAGINYGSNTYYADSVKGRFTISRDNAKNTVYLQMNSLKPEDTAVYYCAAWQPEGYAVDFYHPYWGQGTQVTVSS", "values": [{"measurement": "binding result", "setting": "[1]", "value": "binds"}, {"measurement": "Kd", "setting": "[2]", "value": 1, "unit": "nM"}]}]}
